Results published in the Human Domainome abundance scans (Beltran et al. 2025).
± gives the uncertainty stated by the source.

B1: Nuclear receptor subfamily 4 group A member 2, residues 260 to 336; numbered along this chain, P43354 (parent)
chain: EGLCAVCGDNAACQHYGVRTCEGCKGFFKRTVQKNAKYVCLANKNCPVDKRRRNRCQYCRFQKCLAVGMVKEVVRTD

Variants of: B1
Assay: abundance fitness (aPCA) (normalised: wild type 0, dead -1); higher = more abundant; growth selection in yeast, the domain comes from the species named
Conditions: Homo sapiens

Variant | abundance fitness
EGLCAVCGDNAACQHYKVRTCEGCKGFFKRTVQKNAKYVCLANKNCPVDKRRRNRCQYCRFQKCLAVGMVKEVVRTD [G17K] | -0.346 ± 0.25
EGLCAVCGDNAACQHYGVRTCEGCKGFFKRTVQKNAKYVCLANKNCPVDKRRRNRCQYCSFQKCLAVGMVKEVVRTD [R60S] | -0.033 ± 0.092
EGLCAVCGDNAACQHYGVRTCEGCKGFFKRTVQKNAKYVCLANKNCPVDKRRRNRCQYCLFQKCLAVGMVKEVVRTD [R60L] | 0.047 ± 0.071
EGLCAVCGDNAACQHYGVRTCEGCKGFFKRTVQKNAKYVCLANKNCPVDKRRRNRCQECRFQKCLAVGMVKEVVRTD [Y58E] | -0.055 ± 0.16
EGLCAVCGDNAACQHYGVRTCEGCKGFFKRTVQKNAKYVCLANKNCPVDKRRRNRCQVCRFQKCLAVGMVKEVVRTD [Y58V] | -0.761 ± 0.075
EGLCAVCGDNAACQHYGVRTCEGCKGFFKRTVQKNAKYVCLANKNCPVDKRRRNRVQYCRFQKCLAVGMVKEVVRTD [C56V] | -1.05 ± 0.11
EGLCAVCGDNAACQHYGVRTCEGCKGFFKRTVQKNAKYVCLANKNCPVDKRKRNRCQYCRFQKCLAVGMVKEVVRTD [R52K] | 0.041 ± 0.13
EGLCAVCGDNAACQHYGVRTCEGCKGFFKRTVQKNAKYVCLANKNCPVDKRRRPRCQYCRFQKCLAVGMVKEVVRTD [N54P] | -0.34 ± 0.43
EGLCAVCGDNAACQHYGVRTCEGCKGFFKRTVQKNAKYVCLANKNCPVDERRRNRCQYCRFQKCLAVGMVKEVVRTD [K50E] | 0.175 ± 0.15
EGLCAVCGDNAACQHYGVRTCEGCKGFFKRTVQKNAKYVCLANKNCPVDARRRNRCQYCRFQKCLAVGMVKEVVRTD [K50A] | -0.098 ± 0.088
EGLCAVCGDNAACQHYGVRTCEGCKRFFKRTVQKNAKYVCLANKNCPVDKRRRNRCQYCRFQKCLAVGMVKEVVRTD [G26R] | -0.174 ± 0.059
EGLCAVCGDNAACQHYGVRTCEGCKKFFKRTVQKNAKYVCLANKNCPVDKRRRNRCQYCRFQKCLAVGMVKEVVRTD [G26K] | -0.352 ± 0.14
EGLCAVCGDNAACQHYGVRTCEGCKHFFKRTVQKNAKYVCLANKNCPVDKRRRNRCQYCRFQKCLAVGMVKEVVRTD [G26H] | 0.16 ± 0.15
EGLCAVCGDNAACQHYGVRTCEGCKGFFKRTVQKNAKYVCLANKNCPVDKRRRNRCQYCRFQKCYAVGMVKEVVRTD [L65Y] | -0.317 ± 0.18
EGLCAVCGDNAACQHYGVRTCEGCKGFFKRTVQKNAKYVCLANKNCPVDKRRRNRCQYCRFAKCLAVGMVKEVVRTD [Q62A] | -0.095 ± 0.11
EGLCAVCGDNAACQHYGVRTCEGCKGFFKRTVQKNAKYVCLANKNCPVDKRRRNRCQYCRFKKCLAVGMVKEVVRTD [Q62K] | 0.079 ± 0.28
EGLCAVCGDNAACQHYGVRTCEGCKGFFKRTVQKNAQYVCLANKNCPVDKRRRNRCQYCRFQKCLAVGMVKEVVRTD [K37Q] | -0.041 ± 0.17
EGLCAVCGDNAACQHYGVRTCEGCKGFFKRTVQKNAEYVCLANKNCPVDKRRRNRCQYCRFQKCLAVGMVKEVVRTD [K37E] | -0.177 ± 0.18

Variant | abundance fitness
EGLCAVCGDNAACQHYGVRTCEGCKGFFKRTVQKNAKYVCLAVKNCPVDKRRRNRCQYCRFQKCLAVGMVKEVVRTD [N43V] | -0.014 ± 0.1
EGLCAVCGDNAACQHYGVRTCEGCKGFFKRTVQKNAKYVCLAQKNCPVDKRRRNRCQYCRFQKCLAVGMVKEVVRTD [N43Q] | -0.283 ± 0.29
EGLCAVCGDNAACQHYGVRTCEGCKGFEKRTVQKNAKYVCLANKNCPVDKRRRNRCQYCRFQKCLAVGMVKEVVRTD [F28E] | -1.29 ± 0.45
EGLCAVCGDNAACQHYGVRTCEGCKGFRKRTVQKNAKYVCLANKNCPVDKRRRNRCQYCRFQKCLAVGMVKEVVRTD [F28R] | -0.75 ± 0.11
EGLCAVCGDNAACQHYGVRTCEGCKGFFKRTVQKNAKYVCLANKNCPVLKRRRNRCQYCRFQKCLAVGMVKEVVRTD [D49L] | -0.222 ± 0.078
EGLCAVCGDNAACQHYGVRTCEGCKGFFKRTVQKNAKYVCLANKNCPVWKRRRNRCQYCRFQKCLAVGMVKEVVRTD [D49W] | -0.21 ± 0.062
EGLCAVCGDNAACQHYGVRTCEGCKGFFKRTVQKNAKYVCLANKNCPVYKRRRNRCQYCRFQKCLAVGMVKEVVRTD [D49Y] | -0.148 ± 0.27
EGLCAVCGDNAACQHYGVRTCEGCKGFFKRTVQKNAKYPCLANKNCPVDKRRRNRCQYCRFQKCLAVGMVKEVVRTD [V39P] | 0.158 ± 0.23
EGLCAVCGDNAACQHYGVRTCEGCKGFFKNTVQKNAKYVCLANKNCPVDKRRRNRCQYCRFQKCLAVGMVKEVVRTD [R30N] | -0.126 ± 0.17
EGLCAVCGDNAACQHYGVRTCEGCKGFFKDTVQKNAKYVCLANKNCPVDKRRRNRCQYCRFQKCLAVGMVKEVVRTD [R30D] | -0.032 ± 0.28
EGLCAVCGDNAACQHYGVRTCEGCKGFFKRTVQKNAKYVCLANKNCPVDKRRRNRCRYCRFQKCLAVGMVKEVVRTD [Q57R] | -0.289 ± 0.11
EGLCAVCGDNAACQHYGVRTCEGCKGYFKRTVQKNAKYVCLANKNCPVDKRRRNRCQYCRFQKCLAVGMVKEVVRTD [F27Y] | -0.846 ± 0.33
EGLCAVCGDNAACQHYGVRTCEGCKGKFKRTVQKNAKYVCLANKNCPVDKRRRNRCQYCRFQKCLAVGMVKEVVRTD [F27K] | -0.691 ± 0.25
EGLCAVCGDNAACQHYGVRTCEGCKGFFKRTVQKNAKYVCLANKNCPVDKMRRNRCQYCRFQKCLAVGMVKEVVRTD [R51M] | 0.019 ± 0.3
EGLCAVCGDNAACQHYGVRTCEGCKGFFKRTVQKNAKYVCLANKNCPVDKRRRNRCQYCRFQKRLAVGMVKEVVRTD [C64R] | -0.608 ± 0.14
EGLCAVCGDNAACQHYGVRTCEGCSGFFKRTVQKNAKYVCLANKNCPVDKRRRNRCQYCRFQKCLAVGMVKEVVRTD [K25S] | -0.031 ± 0.079
EGLCAVCGDNAACQHYGVRTCEGCQGFFKRTVQKNAKYVCLANKNCPVDKRRRNRCQYCRFQKCLAVGMVKEVVRTD [K25Q] | -0.019 ± 0.12
EGLCAVCGDNAACQHYGVRTCEGCKGFFKRTVQGNAKYVCLANKNCPVDKRRRNRCQYCRFQKCLAVGMVKEVVRTD [K34G] | 0.05 ± 0.12
